Assay results published in patent US20030170875A1.

Target: wild type human norepinephrine transporter (human) (UniProt P23975)
Assay: cell-based or functional assay

- [3H]NE uptake on cotransfection (% of wt alone): 59
Substance: human norepinephrine transporter A457P mutant (from UniProt P23975 1-617)
